Test results reported in the supplement of paper PMC9428881.
± gives the standard error.

Assay: background-corrected fluorescence of 3'-dye-labeled ssDNA relative to brightest sequence (3'-GCGCG) (fraction); higher = brighter dye fluorescence (less quenching)
Method: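 Single-stranded DNA is synthesized in situ on glass microarrays by 5'->3' photolithographic synthesis, with a Cy3 or Cy5 phosphoramidite coupled at the 3' end next to all 1024 permuted pentamers P1-P5. The construct is 5'-T5-(ACGT minus P5..P1 trinucleotides)-T15-P5P4P3P2P1-dye-3'; the dye is a 3' terminal modification, not part of the sequence. Arrays were scanned at 532 nm (Cy3) or 635 nm (Cy5), background from unlabeled oligos was subtracted, and values are averaged over 10 replicate features per array and at least 3 independent syntheses.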

Row | Sequence | background-corrected fluorescence (dye: Cy3 (3' terminal)) | background-corrected fluorescence (dye: Cy5 (3' terminal))
1 | TTTTTTCATGCGCATCATGATTTTTTTTTTTTTTTGATGC [CGTAG] | 0.522 ± 0.031 | 0.425 ± 0.03
2 | TTTTTTGATGAGCATGCTGATTTTTTTTTTTTTTTCCTAC [CATCC] | 0.45 ± 0.02 | 0.306 ± 0.042
3 | TTTTTTGATGAGCATCATGATTTTTTTTTTTTTTTCCTGC [CGTCC] | 0.485 ± 0.028 | 0.394 ± 0.032
4 | TTTTTTGAGCATGAGCATGCTTTTTTTTTTTTTTTCTCTA [ATCTC] | 0.483 ± 0.0051 | 0.36 ± 0.023
5 | TTTTTTGATCATGATCATCATTTTTTTTTTTTTTTCGCGG [GGCGC] | 0.814 ± 0.019 | 0.793 ± 0.047
6 | TTTTTTCATCATGCGCAGCATTTTTTTTTTTTTTTGGATT [TTAGG] | 0.584 ± 0.031 | 0.41 ± 0.061
7 | TTTTTGCAGCATGCGCATGATTTTTTTTTTTTTTTTTATC [CTATT] | 0.473 ± 0.024 | 0.312 ± 0.018
8 | TTTTTGCATGATGCGCATCATTTTTTTTTTTTTTTTCATG [GTACT] | 0.524 ± 0.054 | 0.377 ± 0.019
9 | TTTTTTCAGCAGCATCATGCTTTTTTTTTTTTTTTGTTGA [AGTTG] | 0.632 ± 0.027 | 0.548 ± 0.046
10 | TTTTTTGATGCTCATGCTGCTTTTTTTTTTTTTTTCAGAA [AAGAC] | 0.609 ± 0.022 | 0.471 ± 0.027
11 | TTTTTTGAGCAGCAGCATCATTTTTTTTTTTTTTTCTTTG [GTTTC] | 0.498 ± 0.024 | 0.343 ± 0.027
12 | TTTTTGCATCAGCATCATCATTTTTTTTTTTTTTTTGTGG [GGTGT] | 0.585 ± 0.06 | 0.511 ± 0.029
13 | TTTTTTCATCATGCTCAGCATTTTTTTTTTTTTTTGGAGT [TGAGG] | 0.653 ± 0.017 | 0.537 ± 0.048
14 | TTTTTGCATGATCATCATCATTTTTTTTTTTTTTTTCGGG [GGGCT] | 0.664 ± 0.02 | 0.558 ± 0.044
15 | TTTTTGCATGCTCATGCGCATTTTTTTTTTTTTTTTAGAT | 0.569 ± 0.031 | 0.463 ± 0.02
16 | TTTTTGCATGCTCATGATGCTTTTTTTTTTTTTTTTAGCA [ACGAT] | 0.52 ± 0.038 | 0.447 ± 0.024
17 | TTTTTTGCTGCGCAGCATGCTTTTTTTTTTTTTTTAATTA [ATTAA] | 0.564 ± 0.022 | 0.43 ± 0.027
18 | TTTTTTGCTGCTGCGCAGCATTTTTTTTTTTTTTTAAATT | 0.543 ± 0.048 | 0.401 ± 0.019
19 | TTTTTTCATGCTCATGCGCATTTTTTTTTTTTTTTGAGAT [TAGAG] | 0.578 ± 0.051 | 0.439 ± 0.023
20 | TTTTTTGATCATGAGCATGCTTTTTTTTTTTTTTTCGCTA [ATCGC] | 0.549 ± 0.026 | 0.399 ± 0.027
21 | TTTTTTGATGATGATGCTCATTTTTTTTTTTTTTTCCCAG [GACCC] | 0.504 ± 0.0073 | 0.374 ± 0.025
22 | TTTTTTGCTGCGCATCATGATTTTTTTTTTTTTTTAATGC [CGTAA] | 0.515 ± 0.016 | 0.4 ± 0.035

Row | Sequence | background-corrected fluorescence (dye: Cy3 (3' terminal)) | background-corrected fluorescence (dye: Cy5 (3' terminal))
23 | TTTTTTCATGATGCTCATCATTTTTTTTTTTTTTTGCAGG [GGACG] | 0.642 ± 0.025 | 0.516 ± 0.039
24 | TTTTTTGATCATGCTCATGCTTTTTTTTTTTTTTTCGAGA [AGAGC] | 0.695 ± 0.032 | 0.53 ± 0.037
25 | TTTTTGCATGCTGCTCATCATTTTTTTTTTTTTTTTAAGG [GGAAT] | 0.627 ± 0.024 | 0.518 ± 0.045
26 | TTTTTGCATGCTGAGCATGCTTTTTTTTTTTTTTTTACTA [ATCAT] | 0.502 ± 0.027 | 0.388 ± 0.028
27 | TTTTTTGCTGATGCTGCTCATTTTTTTTTTTTTTTACAAG [GAACA] | 0.53 ± 0.015 | 0.425 ± 0.021
28 | TTTTTTGATCAGCATGAGCATTTTTTTTTTTTTTTCGTCT [TCTGC] | 0.485 ± 0.02 | 0.36 ± 0.015
29 | TTTTTGCATGAGCATGCTGATTTTTTTTTTTTTTTTCTAC [CATCT] | 0.409 ± 0.017 | 0.296 ± 0.017
30 | TTTTTGCATGCGCATGCGCATTTTTTTTTTTTTTTTATAT | 0.5701 ± 0.0051 | 0.405 ± 0.037
31 | TTTTTGCATCATCATGATGCTTTTTTTTTTTTTTTTGGCA [ACGGT] | 0.562 ± 0.015 | 0.472 ± 0.032
32 | TTTTTTCAGCATCATGATGCTTTTTTTTTTTTTTTGTGCA [ACGTG] | 0.589 ± 0.02 | 0.483 ± 0.028
33 | TTTTTTCATCATCATGCTCATTTTTTTTTTTTTTTGGGAG [GAGGG] | 0.614 ± 0.037 | 0.478 ± 0.026
34 | TTTTTTGCTCAGCATGCGCATTTTTTTTTTTTTTTAGTAT [TATGA] | 0.554 ± 0.031 | 0.417 ± 0.028
35 | TTTTTTCATCATGCTCATGATTTTTTTTTTTTTTTGGAGC [CGAGG] | 0.549 ± 0.026 | 0.439 ± 0.029
36 | TTTTTGCAGCATGAGCATGATTTTTTTTTTTTTTTTTCTC [CTCTT] | 0.389 ± 0.03 | 0.272 ± 0.035
37 | TTTTTTCAGCATGATGCTGCTTTTTTTTTTTTTTTGTCAA [AACTG] | 0.609 ± 0.012 | 0.453 ± 0.04
38 | TTTTTTGCTCATCATCATCATTTTTTTTTTTTTTTAGGGG [GGGGA] | 0.69 ± 0.019 | 0.591 ± 0.028
39 | TTTTTTGAGCATCATGCTCATTTTTTTTTTTTTTTCTGAG [GAGTC] | 0.621 ± 0.024 | 0.479 ± 0.041
40 | TTTTTGCATGCTCATCATGCTTTTTTTTTTTTTTTTAGGA [AGGAT] | 0.747 ± 0.018 | 0.617 ± 0.032
41 | TTTTTTGAGCATCATGCTGATTTTTTTTTTTTTTTCTGAC [CAGTC] | 0.465 ± 0.024 | 0.354 ± 0.033
42 | TTTTTGCATGCGCATCAGCATTTTTTTTTTTTTTTTATGT [TGTAT] | 0.639 ± 0.033 | 0.489 ± 0.046
43 | TTTTTTGCTGCTGATGCTCATTTTTTTTTTTTTTTAACAG [GACAA] | 0.576 ± 0.02 | 0.421 ± 0.019
44 | TTTTTTGCTGATGATCATGCTTTTTTTTTTTTTTTACCGA [AGCCA] | 0.601 ± 0.025 | 0.515 ± 0.031

Row | Sequence | background-corrected fluorescence (dye: Cy3 (3' terminal)) | background-corrected fluorescence (dye: Cy5 (3' terminal))
45 | TTTTTGCATCAGCATCAGCATTTTTTTTTTTTTTTTGTGT | 0.603 ± 0.025 | 0.497 ± 0.026
46 | TTTTTTGAGCAGCATGCGCATTTTTTTTTTTTTTTCTTAT [TATTC] | 0.513 ± 0.029 | 0.369 ± 0.025
47 | TTTTTTCATGATGAGCAGCATTTTTTTTTTTTTTTGCCTT [TTCCG] | 0.489 ± 0.031 | 0.367 ± 0.035
48 | TTTTTTGATCATGCTGCTGCTTTTTTTTTTTTTTTCGAAA [AAAGC] | 0.576 ± 0.032 | 0.475 ± 0.057
49 | TTTTTTGATGATGCTGAGCATTTTTTTTTTTTTTTCCACT [TCACC] | 0.444 ± 0.029 | 0.322 ± 0.023
50 | TTTTTTGCTCATGATGATCATTTTTTTTTTTTTTTAGCCG [GCCGA] | 0.554 ± 0.018 | 0.437 ± 0.029
51 | TTTTTTGCTGATGCTGCTGATTTTTTTTTTTTTTTACAAC [CAACA] | 0.448 ± 0.0078 | 0.302 ± 0.032
52 | TTTTTTCATGCTCATGCTCATTTTTTTTTTTTTTTGAGAG | 0.6283 ± 0.0056 | 0.492 ± 0.024
53 | TTTTTTGATGATCAGCATGCTTTTTTTTTTTTTTTCCGTA [ATGCC] | 0.546 ± 0.025 | 0.436 ± 0.028
54 | TTTTTTGATCATCATGATGATTTTTTTTTTTTTTTCGGCC [CCGGC] | 0.465 ± 0.022 | 0.364 ± 0.027
55 | TTTTTTGAGCATCATGATCATTTTTTTTTTTTTTTCTGCG [GCGTC] | 0.589 ± 0.024 | 0.483 ± 0.051
56 | TTTTTTCATGCTGATCATCATTTTTTTTTTTTTTTGACGG [GGCAG] | 0.65 ± 0.026 | 0.585 ± 0.076
57 | TTTTTGCATGAGCAGCATGCTTTTTTTTTTTTTTTTCTTA [ATTCT] | 0.5004 ± 0.0042 | 0.373 ± 0.022
58 | TTTTTGCATCATCATCATCATTTTTTTTTTTTTTTTGGGG [GGGGT] | 0.66 ± 0.023 | 0.613 ± 0.042
59 | TTTTTTGATGATGATCATGCTTTTTTTTTTTTTTTCCCGA [AGCCC] | 0.629 ± 0.051 | 0.554 ± 0.034
60 | TTTTTTCATGCGCAGCAGCATTTTTTTTTTTTTTTGATTT [TTTAG] | 0.531 ± 0.03 | 0.383 ± 0.029
61 | TTTTTTCAGCAGCATGCGCATTTTTTTTTTTTTTTGTTAT [TATTG] | 0.546 ± 0.048 | 0.389 ± 0.017
62 | TTTTTTCATGAGCAGCATGCTTTTTTTTTTTTTTTGCTTA [ATTCG] | 0.534 ± 0.026 | 0.408 ± 0.03
63 | TTTTTTGATGCTCATCAGCATTTTTTTTTTTTTTTCAGGT [TGGAC] | 0.693 ± 0.045 | 0.534 ± 0.037
64 | TTTTTGCAGCATCAGCAGCATTTTTTTTTTTTTTTTTGTT | 0.554 ± 0.018 | 0.405 ± 0.024
65 | TTTTTTGATCATGCTCAGCATTTTTTTTTTTTTTTCGAGT [TGAGC] | 0.684 ± 0.026 | 0.477 ± 0.058
66 | TTTTTTCATCAGCATCAGCATTTTTTTTTTTTTTTGGTGT [TGTGG] | 0.663 ± 0.02 | 0.511 ± 0.037
